Data on ten molecules can be found in patent publication US20210261685A1 (Alector, published 2021).

To fix the notation:
T1: human MerTK endogenously expressed on cells (SK-MEL-5 cells; human macrophages) (human, UniProt Q12866 21-999)
T1 construct: also called MerTK on SK-MEL-5
T1 sequence: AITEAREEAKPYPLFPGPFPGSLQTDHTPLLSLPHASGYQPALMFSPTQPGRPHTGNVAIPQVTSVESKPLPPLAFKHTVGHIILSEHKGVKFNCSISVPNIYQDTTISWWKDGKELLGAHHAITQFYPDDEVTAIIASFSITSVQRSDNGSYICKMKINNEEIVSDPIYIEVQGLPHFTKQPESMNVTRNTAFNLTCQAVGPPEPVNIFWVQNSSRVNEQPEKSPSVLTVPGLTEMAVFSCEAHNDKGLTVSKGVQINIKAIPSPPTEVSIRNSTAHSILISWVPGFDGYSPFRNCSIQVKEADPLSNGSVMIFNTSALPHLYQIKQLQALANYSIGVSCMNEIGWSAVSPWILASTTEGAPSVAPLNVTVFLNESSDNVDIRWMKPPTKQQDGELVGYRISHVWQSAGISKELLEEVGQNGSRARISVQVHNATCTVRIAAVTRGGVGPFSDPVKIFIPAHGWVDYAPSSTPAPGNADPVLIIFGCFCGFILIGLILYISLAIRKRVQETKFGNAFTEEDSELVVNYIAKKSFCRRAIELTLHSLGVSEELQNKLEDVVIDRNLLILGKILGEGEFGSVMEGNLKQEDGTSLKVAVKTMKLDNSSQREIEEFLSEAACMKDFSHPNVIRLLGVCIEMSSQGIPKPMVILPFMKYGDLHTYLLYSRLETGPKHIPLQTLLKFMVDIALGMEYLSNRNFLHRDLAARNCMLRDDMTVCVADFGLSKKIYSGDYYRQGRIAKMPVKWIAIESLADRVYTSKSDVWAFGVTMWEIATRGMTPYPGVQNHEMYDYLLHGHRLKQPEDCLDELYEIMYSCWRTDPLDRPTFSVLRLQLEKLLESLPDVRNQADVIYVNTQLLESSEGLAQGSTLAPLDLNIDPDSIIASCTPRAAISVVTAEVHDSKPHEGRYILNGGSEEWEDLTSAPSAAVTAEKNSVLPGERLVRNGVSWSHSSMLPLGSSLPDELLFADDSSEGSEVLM

T2: murine MerTK overexpressed on CHO cells (CHO-muMerTK OE cells) (mouse, UniProt Q60805 19-994)
T2 construct: whole, on cells
T2 sequence (looked up): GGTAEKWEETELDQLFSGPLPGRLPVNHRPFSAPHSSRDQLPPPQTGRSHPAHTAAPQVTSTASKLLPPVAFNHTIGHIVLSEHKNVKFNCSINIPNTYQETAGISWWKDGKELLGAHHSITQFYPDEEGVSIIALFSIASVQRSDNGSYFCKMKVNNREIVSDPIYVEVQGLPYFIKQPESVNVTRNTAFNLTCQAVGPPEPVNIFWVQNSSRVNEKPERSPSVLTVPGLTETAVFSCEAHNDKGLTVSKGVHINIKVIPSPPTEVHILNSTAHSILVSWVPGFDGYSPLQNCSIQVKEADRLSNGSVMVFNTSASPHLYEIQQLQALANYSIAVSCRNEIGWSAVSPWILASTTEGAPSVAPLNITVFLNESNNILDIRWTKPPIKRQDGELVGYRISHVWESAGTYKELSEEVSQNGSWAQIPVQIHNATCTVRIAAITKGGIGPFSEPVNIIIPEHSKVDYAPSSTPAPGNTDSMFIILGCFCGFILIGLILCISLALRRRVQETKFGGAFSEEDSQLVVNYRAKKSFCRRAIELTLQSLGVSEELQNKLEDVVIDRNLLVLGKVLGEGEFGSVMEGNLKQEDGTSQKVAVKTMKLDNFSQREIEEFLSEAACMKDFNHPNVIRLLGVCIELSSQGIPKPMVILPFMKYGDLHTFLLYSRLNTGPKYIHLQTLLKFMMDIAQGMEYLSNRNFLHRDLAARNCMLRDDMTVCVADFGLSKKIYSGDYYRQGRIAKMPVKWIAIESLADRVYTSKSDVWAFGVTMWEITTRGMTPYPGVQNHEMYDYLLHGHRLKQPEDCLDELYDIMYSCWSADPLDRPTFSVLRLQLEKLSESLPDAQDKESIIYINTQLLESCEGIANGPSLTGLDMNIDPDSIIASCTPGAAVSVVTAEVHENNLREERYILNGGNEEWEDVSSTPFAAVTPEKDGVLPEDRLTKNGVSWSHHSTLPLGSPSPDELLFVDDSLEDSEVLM

B1: MTK-15 (antibody, human IgG1, V domains shown)
VH: QIQLVQSGPELKKPGETVKISCKASGYTFTNYGVHWVKQAPGKGLKWMGWINTYTGEPTYADDFKGRFAFSLETSASTAYLQINNLKNEDMATYFCARGNRYAYMDYWGQGTSVTVSS
VL: QIVLSQSPAILSASPGEKVTMTCRASSSVSYMHWYQQKSGSSPKPWIYATSNLASGVPARFSGSGSGTSYSLTISRVEAEDAATYYCQQWSSNPRTFGGGTKLEIK
B2: MTK-06 (antibody, human IgG1, V domains shown)
VH: QIQLVQSGPELKKPGETVKISCKASGYTFTNYGMNWVKQAPGKGLKWMGWINTNTGEPTYAEEFKGRFAFSLETSASTAYLQINNLKNEDTATYFCARYYNYWYFDVWGAGTTVTVSS
VL: QIVLSQSPAILSASPGEKVTMTCRASSSVSYMHWYQQKPGSSPKPWIYATSNLASGVPARFSGSGSGTSYSLTISRVEAEDAATYYCQQWSSKPPTFGGGTKLEIK
B3: MTK-16 (antibody, human IgG1, V domains shown)
VH: LIQLVQSGPELKKPGETVKISCKASGYTFTNHGMNWVKQDPGKGLKWMGWINTYTGEPTYADDFKGRFVFSMETSASAAFLQINNLKNEDTATYFCARKGVTAARYFDYWGQGTTLTVSS
VL: DIVMTQSPKFMSTSVGDRVSITCKASQNVRTAVAWYKKKPGQSPKALINLASNRHTGVPDRFTGSGSGTDFTLTISNVQSEDLADYFCLQHWNYPLTFGGGTKLEIK
B4: MTK-10 (antibody, human IgG1, V domains shown)
VH: QVTLKESGPGILQPSQTLSLTCSFSGFSLTTSGMGVGWIRQPSGKGLEWLAHIWSDDDKRSNPALKSRLTISQDSSTNQVFLKIASVDTADSATYYCSHLTPVREFAYWGPGTLVTVSE
VL: DIQMTQTTSSLSASLGDRVTISCSASQGISNYLNWFQQKPDGTVKLLIYYTSRLHSGVPSRFSGSGSGTDFSLTISNLEPEDIATYYCQQYTKLPYTFGGGTKLEIK
B5: MTK-13 (antibody, human IgG1, V domains shown)
VH: DVQLQESGPGLVKPSQSLSLTCSVTGYSITSGYYWNWIRQFPGNKLEWMGNIDYDGSNKYNPSLKNRISITRDTSKNHFFLKLNSVTPEDTATYFCARDGGNYRSFAYWGQGTLVTVSA
VL: QIVLTQSPPIMSASPGEKVTITCSASSSVSYMYWFQQKPGTSPKLWIYSTFNLASGVPARFSGSGSGTSYSLTISRMEAEDVATYYCQQRSSYPFTFGSGTKLEIK
B6: MTK-29 (antibody, human IgG1, V domains shown)
VH: QIQLVQSGPELKKPGETVKISCKSSGFTFTTYGMSWVKQAPGKGLKWMGWINTYSGVPTYTDDFKGRFAFSLETSASTASLQINNLKNEDTATYFCARYTNYGYFDYWGQGTTLTVSS
VL: QIVLSQSPAILSASPGEKVTMTCRATSSVGYMHWYQQKPGSSPKPWIYATSNLASGVPARFSGSGSGTSYSLTISRVEAEHAATYYCQQWGSNPFTFGSGTKLEIK
B7: MTK-24 (antibody, human IgG1, V domains shown)
VH: QVQLQQPGAELVKPGASVKLSCKASGYTFTSYWMHWVKQRPGQGLEWIGMIHPNINTNYNEKFKSKATLTVDISSSTAYMQLSSLTSEDSAVYYCAKRSPYSNYDWYFDVWGTGTTVTVSS
VL: DIQMTQSPASLSVSVGETVTITCRASENIYSNLAWYQQKQGKSPQLLVYAATNLADGVPSRFSGSGSGTQYSLKINSLQSEDFGSYYCQHFWGTPLTFGAGTKLELK
B8: MTK-33 (antibody, human IgG1, V domains shown)
VH: QVQLQQPGPELVRPGTSVKLSCKASGYTFTSYWMHWIKQRPGQGLEWIGVIDPSDNYINYNQKFKGKATLTVDTSSSTAYLQLSSLTSEDSAVYYCAREAGTRGYFDYWGQGTTLTVSS
VL: SIVMTQTPKFLLVSAGDRVIITCKASQSVSNTVAWYQQKPGQSPKLLIYYASNRYTGVPDRFTGSGYGTDFTFTISTVQAEDLAVYFCQQDYRSPFTFGSGTQLEMK
B9: MTK-30 (antibody, human IgG1, V domains shown)
VH: QVQLQQPGTELVRPGASVKLSCKASGYTFTSYWMHWVKQRPGQGLEWIGNLNPNNGGTYYNEKFKSKATLTVDKSSSTAYMQLSSLTSEDSAVYYCARQILLYFDYWGQGTTLTVSS
VL: DVLMTQTPLSLPVSLGDQASISCRSSQSIVHSNGDTYLEWYLQKPGQSPKLLIYKVSNRFSGVPDRFSGSGSGTDFTLKISRVEAEDLGVYYCFQGSHVPWTFGGGTKLEIK
B10: MTK-31 (antibody, human IgG1, V domains shown)
VH: QIQLVQSGPELKKSGETVKISCKASGYTFTSYGMSWVKQAPGKGLKWMGWINTYSGVPTYADDFKGRFAFSLETSASTAYLQINNLKNEDTATYFCASLSYDGSLYHAMDYWGQGTSVTVSS
VL: DVSMTQTPLSLPVSLGDQASISSRSSQTIVHSNGNTYLEWYLQKPGQSPKLLIYKVSNRFSGVPDRFSGSGSGTDFTLKISRVEAEDLGVYYCFQGSHVPWTFGGGTKLEIK

For one test, the target named is T1, human MerTK endogenously expressed on …. The test can be described thus: flow cytometry on SK-MEL-5 cells (endogenous human MerTK), APC anti-human kappa detection, MFI. On the procedure:
(§1) To determine whether recombinant anti-human MerTK antibodies of the present disclosure bind to human MerTK endogenously expressed on SK-MEL-5 cells and to CHO cells overexpressing mouse MerTK (CHO-muMerTK OE cells), the following experiments were performed. SK-MEL-5 cells and CHO-muMerTK OE cells were plated at 40,000 cells/well. Anti-MerTK antibodies were titrated to a final concentration range of between 66.6 nM to 4 pM and then added to the cells. After 30 min on ice, cells were washed and then stained with APC-conjugated mouse anti-human Kappa antibody (Southern Biotech Cat #9230-11, Birmingham, Ala.) and a viability die (Life Technologies) in the presence of Fc block solution on ice for 30 minutes, and then washed twice with cold FACS buffer (2% FBS in PBS). Cells were fixed with 4% paraformaldehyde in PBS. Stained cells were acquired on a BD FACS Canto II cytometer and the mean fluorescence intensity (MFI) was calculated with FlowJo software and K value was calculated with Prism software. […] A lower Kd value reflects higher binding of antibody to cells.
Regarding B1, the “EC50 (read off the curve)” value is ~0.2 nM.
On the same count and under the same terms, with B2 the figure was ~0.2 nM; with B3, ~2 nM.
The same measure, in the same setting: to B4 belongs ~0.3 nM; to B5, ~0.6 nM.

The target in the next test is T2, murine MerTK overexpressed on CHO cells …. The test can be described thus: flow cytometry on CHO-muMerTK OE cells, Prism fit. On the procedure:
as §1
(In general: A flow cytometer gives signals particle by particle.)
Regarding B6, the Kd stood at 5.22 nM.
In the case of B7, binding was put at a Kd of 0.22 nM. This Kd is about 24-fold lower than that of the molecule before.
Still for that read-out and setting: to B8 belongs 0.53 nM; to B9, 0.24 nM; to B10, 2.91 nM.

The EC50 (read off the curve) is the concentration at which the effect is half-maximal. Usually Kd stands for the free concentration of one partner at which half of the binding sites on the other are occupied at equilibrium, for simple one-to-one binding. Higher therefore signals a looser complex.
